Test results taken from PMC13036776, “Structural and Kinetic Basis for the Rational Design of Next-Generation β‑Lactamase Inhibitors” (Journal of Medicinal Chemistry, 2026).

Test system: O=C(Cc1cccs1)N[C@@H]1C(=O)N2C(C(=O)O)=C(/C=C/c3ccc([N+](=O)[O-])cc3[N+](=O)[O-])CS[C@H]12
Test: purified protein
Format: biochemical, Pseudomonas aeruginosa
Conditions: active site, catalytic S64 acylation (acyl-enzyme), pH 7.2

Row | Substance | Km (general base K67, R349 anchor) | Vmax (general base K67, R349 anchor) | kcat (general base K67, R349 anchor) | kcat/Km (general base K67, R349 anchor) | Km (general base K67) | Vmax (general base K67) | kcat (general base K67) | kcat/Km (general base K67)
1 | PDC-3 (Pseudomonas-derived cephalosporinase-3, class C β-lactamase AmpC) (Pseudomonas aeruginosa PAO1) | 28 ± 1 µM | 82.2 µM/min | 152 ± 15 s⁻¹ | 5.4e+06 ± 500000 M⁻¹ s⁻¹ | – | – | – | –
2 | PDC-3 (Pseudomonas-derived cephalosporinase-3, class C β-lactamase AmpC) (Pseudomonas aeruginosa PAO1; R376A/T105A) | – | – | – | – | 10.1 ± 1.5 µM | 55.8 µM/min | 85 ± 3 s⁻¹ | 8.4e+06 ± 1.3e+06 M⁻¹ s⁻¹
